Results on 14 molecules are retold here after US20220227830A1, “QD DOSING OF GIP RECEPTOR AGONIST PEPTIDE COMPOUNDS AND USES THEREOF” (Takeda Pharmaceutical Company Limited, priority 2020, published 2022).

Assay [1] concerns the target T1, full-length human GIPR with an N-terminal FLAG tag (human, UniProt P48546 22-466).
T1 sequence (looked up): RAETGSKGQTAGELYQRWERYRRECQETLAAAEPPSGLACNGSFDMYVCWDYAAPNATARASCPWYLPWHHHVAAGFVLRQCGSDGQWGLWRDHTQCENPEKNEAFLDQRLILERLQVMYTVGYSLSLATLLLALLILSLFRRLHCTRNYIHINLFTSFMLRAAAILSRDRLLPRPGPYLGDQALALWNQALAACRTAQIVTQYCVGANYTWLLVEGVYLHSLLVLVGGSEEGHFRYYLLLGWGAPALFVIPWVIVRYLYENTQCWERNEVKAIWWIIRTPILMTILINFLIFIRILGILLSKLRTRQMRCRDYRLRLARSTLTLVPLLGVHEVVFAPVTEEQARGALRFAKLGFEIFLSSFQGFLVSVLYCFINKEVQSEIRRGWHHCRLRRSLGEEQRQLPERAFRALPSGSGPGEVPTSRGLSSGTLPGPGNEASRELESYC
Kind of assay: cell-based or functional assay.

Assay [2] addresses full-length human GLP-1R with an N-terminal FLAG tag (human, UniProt P43220 24-463). Kind of assay: cell-based or functional assay.

Starred links: 1 amine or outer side, 2 acyl side, 3 side chain; linkers in the order of their positions; H or OH if unused. Non-standard residues stand in square brackets, D forms with d. Groups on a side chain read outwards from the residue. No end group written: not given here. *: point of attachment. G2E3 = linker of 2 Gly and 3 Glu (read GGEEE); C15 diacid = O=C(O)CCCCCCCCCCCCCC(=O)*; γGlu = O=C(O)[C@H](CCC(=O)[*:2])N[*:1]; NMeY = CN[C@@H](Cc1ccc(O)cc1)C(=O)O; AEEA = NCCOCCOCC(=O)O; Aib = CC(C)(N)C(=O)O

Consider Me-Y[Aib]EGTFISDYSI[Aib]K([G2E3-C15 diacid])DR[Aib]AQ[Aib]NFVNWLLAQRPSSGAPPPS-NH2 [Compound 138], for which the “Human GIPR cAMP, HEK293T EC50” value in assay [1] amounted to 0.0004 nM. Further, the “Human GLP1R cAMP HEK293T EC50” value in assay [2] turned out to be 1000 nM.

For the molecule [NMeY][Aib]EGTFISDYSI[Aib]KDR[Aib]AQ[Aib]NFVNWLLAQRGGGGS-NH2 (not fully specified (residue 14)) [Compound 134], the “Human GIPR cAMP, HEK293T EC50” value in assay [1] amounted to 0.0004 nM. The “Human GLP1R cAMP HEK293T EC50” value in assay [2] came to 1000 nM.

B1: Compound 131 (peptide)
peptide: [NMeY][Aib]EGTFISDYSIALDRK([Gly-Gly-Gly-Gly-Gly-γGlu-C15 diacid])AQ[Aib]NFVNWLLAQSPSSGAPPPS-NH2
modifications: N-terminus assumed
SMILES: CC[C@H](C)[C@H](NC(=O)[C@H](CO)NC(=O)[C@H](Cc1ccc(O)cc1)NC(=O)[C@H](CC(=O)O)NC(=O)[C@H](CO)NC(=O)[C@@H](NC(=O)[C@H](Cc1ccccc1)NC(=O)[C@@H](NC(=O)CNC(=O)[C@H](CCC(=O)O)NC(=O)C(C)(C)NC(=O)[C@H](Cc1ccc(O)cc1)NC)[C@@H](C)O)[C@@H](C)CC)C(=O)N[C@@H](C)C(=O)N[C@@H](CC(C)C)C(=O)N[C@@H](CC(=O)O)C(=O)N[C@@H](CCCNC(=N)N)C(=O)N[C@@H](CCCCNC(=O)CNC(=O)CNC(=O)CNC(=O)CNC(=O)CNC(=O)CC[C@H](NC(=O)CCCCCCCCCCCCCC(=O)O)C(=O)O)C(=O)N[C@@H](C)C(=O)N[C@@H](CCC(N)=O)C(=O)NC(C)(C)C(=O)N[C@@H](CC(N)=O)C(=O)N[C@@H](Cc1ccccc1)C(=O)N[C@H](C(=O)N[C@@H](CC(N)=O)C(=O)N[C@@H](Cc1c[nH]c2ccccc12)C(=O)N[C@@H](CC(C)C)C(=O)N[C@@H](CC(C)C)C(=O)N[C@@H](C)C(=O)N[C@@H](CCC(N)=O)C(=O)N[C@@H](CO)C(=O)N1CCC[C@H]1C(=O)N[C@@H](CO)C(=O)N[C@@H](CO)C(=O)NCC(=O)N[C@@H](C)C(=O)N1CCC[C@H]1C(=O)N1CCC[C@H]1C(=O)N1CCC[C@H]1C(=O)N[C@@H](CO)C(N)=O)C(C)C
With B1, the “Human GIPR cAMP, HEK293T EC50” value in assay [1] turned out to be 0.0003 nM. Besides, in assay [2], the “Human GLP1R cAMP HEK293T EC50” value turned out to be 75.9 nM.

Take Me-Y[Aib]EGTFISDYSI[Aib]K([AEEA-AEEA-γGlu-γGlu-C15 diacid])DR[Aib]AQ[Aib]NFVNWLLAQSPSSGAPPPS-NH2 [Compound 139]: the “Human GIPR cAMP, HEK293T EC50” value in assay [1] was 0.0004 nM. The “Human GLP1R cAMP HEK293T EC50” value in assay [2] was determined as 1000 nM.

For the molecule Me-Y[Aib]EGTFISDYSI[Aib]LDR[Aib]AQ[Aib]NFVNWLLAQK([AEEA-AEEA-γGlu-γGlu-C15 diacid])GGGGS-NH2 [Compound 136], the “Human GIPR cAMP, HEK293T EC50” value in assay [1] was 0.0009 nM. Also, in assay [2], the “Human GLP1R cAMP HEK293T EC50” value was 407 nM.

B2: Compound 12 (peptide)
peptide: [NMeY][Aib]EGTFISDYSIALDR[Aib]HQ[Aib]K([AEEA-AEEA-γGlu-C15 diacid])FVNWLLAQK-OH
modifications: N-terminus assumed
SMILES: CC[C@H](C)[C@H](NC(=O)[C@H](CO)NC(=O)[C@H](Cc1ccc(O)cc1)NC(=O)[C@H](CC(=O)O)NC(=O)[C@H](CO)NC(=O)[C@@H](NC(=O)[C@H](Cc1ccccc1)NC(=O)[C@@H](NC(=O)CNC(=O)[C@H](CCC(=O)O)NC(=O)C(C)(C)NC(=O)[C@H](Cc1ccc(O)cc1)NC)[C@@H](C)O)[C@@H](C)CC)C(=O)N[C@@H](C)C(=O)N[C@@H](CC(C)C)C(=O)N[C@@H](CC(=O)O)C(=O)N[C@@H](CCCNC(=N)N)C(=O)NC(C)(C)C(=O)N[C@@H](Cc1c[nH]cn1)C(=O)N[C@@H](CCC(N)=O)C(=O)NC(C)(C)C(=O)N[C@@H](CCCCNC(=O)COCCOCCNC(=O)COCCOCCNC(=O)CC[C@H](NC(=O)CCCCCCCCCCCCCC(=O)O)C(=O)O)C(=O)N[C@@H](Cc1ccccc1)C(=O)N[C@H](C(=O)N[C@@H](CC(N)=O)C(=O)N[C@@H](Cc1c[nH]c2ccccc12)C(=O)N[C@@H](CC(C)C)C(=O)N[C@@H](CC(C)C)C(=O)N[C@@H](C)C(=O)N[C@@H](CCC(N)=O)C(=O)N[C@@H](CCCCN)C(=O)O)C(C)C
B2: the “Human GIPR cAMP, HEK293T EC50” value in assay [1] is 0.0002 nM. In assay [2], the “Human GLP1R cAMP HEK293T EC50” value is 363 nM.

Turning to Me-Y[Aib]EGTFISDYSI[Aib]KDR[Aib]AQ[Aib]DFVNWLLAQSPSSGAPPPS-NH2 (not fully specified (residues 1, 14)) [Compound 140], the “Human GIPR cAMP, HEK293T EC50” value in assay [1] was 0.0004 nM. Further, the “Human GLP1R cAMP HEK293T EC50” value in assay [2] worked out at 178 nM.

[NMeY][Aib]EGTFISDYSI[Aib]LDRK([AEEA-AEEA-γGlu-γGlu-C15 diacid])AQ[Aib]NFVNWLLAQRGGGGS-NH2 [Compound 135]: in assay [1], the “Human GIPR cAMP, HEK293T EC50” value stood at 0.0005 nM. The “Human GLP1R cAMP HEK293T EC50” value in assay [2] was 646 nM.

B3: Compound 128 (peptide)
peptide: [NMeY][Aib]EGTFISDYSI[Aib]K([AEEA-AEEA-γGlu-C15 diacid])DR[Aib]AQ[Aib]DFVNWLLAQRPSSGAPPPS-NH2
modifications: N-terminus assumed
SMILES: CC[C@H](C)[C@H](NC(=O)[C@H](Cc1ccccc1)NC(=O)[C@@H](NC(=O)CNC(=O)[C@H](CCC(=O)O)NC(=O)C(C)(C)NC(=O)[C@H](Cc1ccc(O)cc1)NC)[C@@H](C)O)C(=O)N[C@@H](CO)C(=O)N[C@@H](CC(=O)O)C(=O)N[C@@H](Cc1ccc(O)cc1)C(=O)N[C@@H](CO)C(=O)N[C@H](C(=O)NC(C)(C)C(=O)N[C@@H](CCCCNC(=O)COCCOCCNC(=O)COCCOCCNC(=O)CC[C@H](NC(=O)CCCCCCCCCCCCCC(=O)O)C(=O)O)C(=O)N[C@@H](CC(=O)O)C(=O)N[C@@H](CCCNC(=N)N)C(=O)NC(C)(C)C(=O)N[C@@H](C)C(=O)N[C@@H](CCC(N)=O)C(=O)NC(C)(C)C(=O)N[C@@H](CC(=O)O)C(=O)N[C@@H](Cc1ccccc1)C(=O)N[C@H](C(=O)N[C@@H](CC(N)=O)C(=O)N[C@@H](Cc1c[nH]c2ccccc12)C(=O)N[C@@H](CC(C)C)C(=O)N[C@@H](CC(C)C)C(=O)N[C@@H](C)C(=O)N[C@@H](CCC(N)=O)C(=O)N[C@@H](CCCNC(=N)N)C(=O)N1CCC[C@H]1C(=O)N[C@@H](CO)C(=O)N[C@@H](CO)C(=O)NCC(=O)N[C@@H](C)C(=O)N1CCC[C@H]1C(=O)N1CCC[C@H]1C(=O)N1CCC[C@H]1C(=O)N[C@@H](CO)C(N)=O)C(C)C)[C@@H](C)CC
B3: the “Human GIPR cAMP, HEK293T EC50” value in assay [1] is 0.0004 nM. The “Human GLP1R cAMP HEK293T EC50” value in assay [2] stood at 457 nM.

As to [NMeY][Aib]EGTFISDYSIALDR[Aib]AQ[Aib]KFVNWLLAQRPSSGAPPPS-NH2 (not fully specified (residue 21)) [Compound 130], in assay [1], the “Human GIPR cAMP, HEK293T EC50” value worked out at 0.0004 nM. Moreover, in assay [2], the “Human GLP1R cAMP HEK293T EC50” value was 91.2 nM.

Turning to [NMeY][Aib]EGTFISDYSIALDRK([G5-γGlu-C15DA])AQ[Aib]DFVNWLLAQSPSSGAPPPS-NH2 [Compound 132], in assay [1], the “Human GIPR cAMP, HEK293T EC50” value was determined as 0.0001 nM. The “Human GLP1R cAMP HEK293T EC50” value in assay [2] turned out to be 21.9 nM.

With [NMeY][Aib]EGTFISDYSIALDRK([Gly-Gly-Gly-Gly-Gly-γGlu-C15 diacid])AQ[Aib]DFVNWLLAQRPSSGAPPPS-NH2 [Compound 137], the “Human GIPR cAMP, HEK293T EC50” value in assay [1] was determined as 0.0002 nM. Further, the “Human GLP1R cAMP HEK293T EC50” value in assay [2] turned out to be 479 nM.

B4: Compound 129 (peptide)
peptide: [NMeY][Aib]EGTFISDYSI[Aib]K([AEEA-AEEA-γGlu-C15 diacid])DR[Aib]AQ[Aib]DFVNWLLAQSPSSGAPPPS-NH2
modifications: N-terminus assumed
SMILES: CC[C@H](C)[C@H](NC(=O)[C@H](Cc1ccccc1)NC(=O)[C@@H](NC(=O)CNC(=O)[C@H](CCC(=O)O)NC(=O)C(C)(C)NC(=O)[C@H](Cc1ccc(O)cc1)NC)[C@@H](C)O)C(=O)N[C@@H](CO)C(=O)N[C@@H](CC(=O)O)C(=O)N[C@@H](Cc1ccc(O)cc1)C(=O)N[C@@H](CO)C(=O)N[C@H](C(=O)NC(C)(C)C(=O)N[C@@H](CCCCNC(=O)COCCOCCNC(=O)COCCOCCNC(=O)CC[C@H](NC(=O)CCCCCCCCCCCCCC(=O)O)C(=O)O)C(=O)N[C@@H](CC(=O)O)C(=O)N[C@@H](CCCNC(=N)N)C(=O)NC(C)(C)C(=O)N[C@@H](C)C(=O)N[C@@H](CCC(N)=O)C(=O)NC(C)(C)C(=O)N[C@@H](CC(=O)O)C(=O)N[C@@H](Cc1ccccc1)C(=O)N[C@H](C(=O)N[C@@H](CC(N)=O)C(=O)N[C@@H](Cc1c[nH]c2ccccc12)C(=O)N[C@@H](CC(C)C)C(=O)N[C@@H](CC(C)C)C(=O)N[C@@H](C)C(=O)N[C@@H](CCC(N)=O)C(=O)N[C@@H](CO)C(=O)N1CCC[C@H]1C(=O)N[C@@H](CO)C(=O)N[C@@H](CO)C(=O)NCC(=O)N[C@@H](C)C(=O)N1CCC[C@H]1C(=O)N1CCC[C@H]1C(=O)N1CCC[C@H]1C(=O)N[C@@H](CO)C(N)=O)C(C)C)[C@@H](C)CC
On to B4, for which the “Human GIPR cAMP, HEK293T EC50” value in assay [1] worked out at 0.0005 nM. Besides, the “Human GLP1R cAMP HEK293T EC50” value in assay [2] is 1000 nM.

Consider [NMeY][Aib]EGTFISDYSIALDR[Aib]KQ[Aib]NFVNWLLAQSGGGGS-NH2 (not fully specified (residue 18)) [Compound 133], for which, in assay [1], the “Human GIPR cAMP, HEK293T EC50” value came to 0.0005 nM. Further, the “Human GLP1R cAMP HEK293T EC50” value in assay [2] is 1000 nM.
